The chains are these.
B1: CPEB3 Ribozyme (parent)
chain: UAACAGGGGGCCACAGCAGAAGCGUUCACGUCGCAGCCCCUGUCAGAUUCUGGUGAAUCUGCGAAUUCUGCUGUAUAUCUC

Among the data in the RNAGym collection of RNA variant scans (doi:10.1093/nar/gkz1192) are self-cleavage values, retold here.

The data set covers variants of B1. Description: self-cleavage, relative activity (ratio to wild type); higher = more cleavage; in vitro, sequencing. A digest of the protocol: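 After error-prone PCR and barcoding, CPEB3 ribozyme mutant libraries were transcribed with T7 RNA polymerase at 37°C for 5 hours, then given 15 min with DNase I before an EDTA stop, and they cleaved during both steps. Reverse transcription with template switching preceded Illumina sequencing. Relative activity divides a variant's cleaved/total read fraction by the unmutated ribozyme's. At least 5 reads were required per variant, and three batches were averaged.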
Take U31G U72C: the self-cleavage was 0.82. The result for U31G U72A reads 0.5; that for C32U A47U, 0.32. The result for C32U A47G reads 0.19.

Turning to U31G U54A, the self-cleavage was 0.62. For the variant U31G U54C, the self-cleavage came out at 0.63.

In the case of C32U G55A, the self-cleavage worked out at 0.14. The result for C32U U66A reads 0.22; that for C32U U66C, 0.22. The same measure for C32A C59A: 0.15. Take U31G A75U: the self-cleavage worked out at 0.46. The same measure for U31G A75G: 0.54. The result for C32G G63A reads 0.14; that for C32G U54A, 0.19; that for U31C U41G, 0.34. The same measure for U31C U41C: 0.82. Consider U31C U41A, for which the self-cleavage amounted to 0.29.

Consider U31C C37A, for which the self-cleavage was 0.28. Take U31C C37U: the self-cleavage came out at 0.46. The result for C32G U72C reads 0.11. The same measure for C32A A75U: 0.16; for C32A A75C: 0.56. The result for C32G U49C reads 0.11; that for C32U A64U, 0.13. In the case of C32U A64G, the self-cleavage was found to be 0.3.

Regarding G33A A64U, the self-cleavage was 0.28. The same measure for G33A A64G: 0.16. The result for C32A U60A reads 0.17; that for C32U A77C, 0.15. The same measure for U31G G33A: 0.57; for U31C U51A: 0.89; for U31C U51G: 0.89. In the case of U31C U51C, the self-cleavage amounted to 0.78. The same measure for C32U A45C: 0.15. On to C32U A45U, for which the self-cleavage came out at 0.3. The result for C32U A45G reads 0.15; that for C32G C37U, 0.31; that for C32A U48G, 0.24. The result for C32A U48C reads 0.22. U31G A35U: the self-cleavage was found to be 0.36. Consider U31G A35G, for which the self-cleavage is 1.1. C32U U51G: the self-cleavage came to 0.22. The result for C32U U51C reads 0.16. Regarding C32U U51A, the self-cleavage is 0.19. Regarding U31G A57G, the self-cleavage amounted to 0.48. The same measure for U31C G36A: 0.13; for U31C G36U: 0.14. The result for C32G A77U reads 0.2; that for C32U C68U, 0.2; that for C32U C68G, 0.13. As for U31C U69C, the self-cleavage was determined as 0.31. The same measure for U31C U69A: 0.37; for U31C U69G: 0.41; for U31C C32U: 0.22. For the variant U31C C32A, the self-cleavage was determined as 0.31. The result for C32A U49C reads 0.15. The result for C32A U49A reads 0.11; that for C32A U76C, 0.25. U31C U58C: the self-cleavage amounted to 0.33. The result for U31C U58G reads 0.39; that for U31C U58A, 0.31. As to G33A A56G, the self-cleavage is 0.28. On to G33A A56U, for which the self-cleavage turned out to be 0.18. For U31G C40G, the self-cleavage came out at 0.12.

Take C32A G55A: the self-cleavage amounted to 0.5.

Consider C32A U78C, for which the self-cleavage was 0.2. The result for U31C G70C reads 0.18; that for U31C G70A, 0.25.

Regarding U31C G53U, the self-cleavage is 1.06. Turning to U31C G53A, the self-cleavage was found to be 0.91. The result for G33A A45G reads 0.24; that for G33A A45U, 0.39. The result for G33A A45C reads 0.22; that for G33A, 0.28; that for C32G U69C, 0.44.

As to U31G U43C, the self-cleavage is 0.36.

C32U C38U: the self-cleavage worked out at 0.08. The same measure for C32A U58A: 0.37. As to U31C C81G, the self-cleavage is 0.55.

As for U31C C81U, the self-cleavage came to 1.14.

As to G33A C50G, the self-cleavage turned out to be 0.22. The same measure for G33A C50U: 0.1; for U31C G42U: 0.13. The same measure for U31C G42A: 0.35. Consider C32A A47G, for which the self-cleavage amounted to 0.14. The result for U31G U67C reads 0.3; that for U31G U67A, 0.25; that for C32U G52C, 0.2.

Take C32G A45C: the self-cleavage is 0.12. The same measure for C32G A45U: 0.08.

C32U C34U: the self-cleavage was 0.19.

Consider U31G U80C, for which the self-cleavage was determined as 0.72. Consider U31G U80A, for which the self-cleavage was determined as 0.59. As for C32A U54A, the self-cleavage turned out to be 0.29. Regarding C32A U54C, the self-cleavage came to 0.32. For the variant U31C G55U, the self-cleavage stood at 0.76. The result for U31C G55A reads 0.78; that for C32U A75G, 0.11; that for C32U U78C, 0.25.

For the variant C32G G73A, the self-cleavage came out at 0.22. The result for G33A A35G reads 0.39. The same measure for G33A A35U: 0.21; for C32A U67A: 0.13; for C32U U54A: 0.2. The same measure for C32U U54C: 0.33; for C32A A35G: 0.87; for C32U U49C: 0.21. For the variant C32U U49A, the self-cleavage came out at 0.15.

Take U31C U60C: the self-cleavage was 0.29. On to U31C U60G, for which the self-cleavage stood at 0.15. The result for U31C U60A reads 0.34; that for C32U U80C, 0.44; that for C32U A57G, 0.22. The result for C32U A57U reads 0.13; that for C32U A57C, 0.13.

With G33A A57C, the self-cleavage was 0.11. The result for G33A A57G reads 0.25. The same measure for G33A A47G: 0.4; for C32A A77U: 0.33. The result for U31C U74A reads 1.18. For the variant U31C U74G, the self-cleavage came to 1.23. The result for U31C U74C reads 1.18; that for G33A C39U, 0.16; that for U31C C79A, 0.94.

As to U31C C79U, the self-cleavage is 1.1. As for C32U U74G, the self-cleavage is 0.09. The result for C32U U74C reads 0.38. The result for U31G G55A reads 0.21. As to U31C U49C, the self-cleavage is 0.23. The result for U31C U49G reads 0.3; that for U31C U49A, 0.5. The same measure for U31C C34A: 0.15; for U31C C34U: 0.24; for U31G U41A: 0.29.

For U31G U41C, the self-cleavage turned out to be 0.33. C32U U48C: the self-cleavage came to 0.13. As to C32G U43C, the self-cleavage stood at 0.37. For U31G G36U, the self-cleavage was found to be 0.15.

As for C32A U43C, the self-cleavage is 0.35. Consider C32A U43A, for which the self-cleavage was 0.5. The same measure for U31G A77G: 0.59; for G33A A75U: 0.11; for U31G U66C: 0.37. As for U31G C68A, the self-cleavage stood at 0.31. The result for C32A G46A reads 0.11; that for U31G U58C, 0.4. The result for U31G U58A reads 0.44; that for U31G C79A, 0.56. The same measure for U31C C59U: 0.54. For U31C C59A, the self-cleavage is 0.29.

Regarding C32G, the self-cleavage worked out at 0.23. Turning to C32A, the self-cleavage was determined as 0.29. As for C32U, the self-cleavage is 0.28. C32A C62G: the self-cleavage is 0.13. The same measure for U31G U60A: 0.32. The same measure for U31G U60C: 0.31. The result for G33A C40G reads 0.2. G33A C40A: the self-cleavage is 0.19. The result for G33A C40U reads 0.38; that for U31C U72G, 0.46. The result for U31C U72A reads 0.5. The same measure for U31C U72C: 0.97; for U31C C71U: 0.25. In the case of U31C C71G, the self-cleavage turned out to be 0.23. Regarding C32A G52U, the self-cleavage came out at 0.13.

In the case of C32A G52C, the self-cleavage was 0.1. The same measure for C32A G52A: 0.29.
